From US20020034767

System: G protein βγ subunits

With β-adrenergic receptor kinase the “rhodopsin phosphorylation in the presence or absence of 100 nM G protein βγ subunits” value was “βARK is significantly activated in the presence of G protein βγ subunits”.
